Assay results from the supplement of paper PMC10567573.

B1: RIPK4 (parent)
chain: RERMELLEEAKKMEMAKFRYILPV
B2: HDAC6 (parent)
chain: QEGLLDRCVSFQARFAEKEELMLV

Variants of: B1
Test: protein stability index of a GFP-peptide fusion (GPS, HEK-293T) (PSI 1-6); higher = more stable
Conditions: c terminus: a fixed tail appended
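Also: lentivirally expressed fusions sorted by FACS into six bins by GFP to DsRed ratio, PSI derived from sequencing read proportions per bin multiplied by bin number.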

Variant | protein stability index
RERMELLEEFKKMEMAKFRYILPV | 3.48
RERMELLEESKKMEMAKFRYILPV | 3.69
RERMELLEERKKMEMAKFRYILPV | 3.66
RERMELLEENKKMEMAKFRYILPV | 3.85
RERMELLEEPKKMEMAKFRYILPV | 3.28
RERMELLEEYKKMEMAKFRYILPV | 3.93
RERMELLEEVKKMEMAKFRYILPV | 4.15
RERMELLEECKKMEMAKFRYILPV | 4.69
RERMELLEETKKMEMAKFRYILPV | 2.81
RERMELLEEKKKMEMAKFRYILPV | 4.38
RERMELLEEMKKMEMAKFRYILPV | 3.32
RERMELLEEEKKMEMAKFRYILPV | 3.54
RERMELLEEDKKMEMAKFRYILPV | 3.99
RERMELLEEQKKMEMAKFRYILPV | 3.79
RERMELLEEWKKMEMAKFRYILPV | 3.58
RERMELLEEIKKMEMAKFRYILPV | 2.82
RERMELLEELKKMEMAKFRYILPV | 3.33
RERMELLEEHKKMEMAKFRYILPV | 2.94
RIRMELLEEAKKMEMAKFRYILPV | 1.93
RVRMELLEEAKKMEMAKFRYILPV | 2.81
RFRMELLEEAKKMEMAKFRYILPV | 2.27
RHRMELLEEAKKMEMAKFRYILPV | 2.75
RQRMELLEEAKKMEMAKFRYILPV | 2.31
RWRMELLEEAKKMEMAKFRYILPV | 1.47
RPRMELLEEAKKMEMAKFRYILPV | 3.75
RCRMELLEEAKKMEMAKFRYILPV | 1.34

Variant | protein stability index
RGRMELLEEAKKMEMAKFRYILPV | 2.57
RLRMELLEEAKKMEMAKFRYILPV | 2.57
RYRMELLEEAKKMEMAKFRYILPV | 2.74
RRRMELLEEAKKMEMAKFRYILPV | 2.67
RMRMELLEEAKKMEMAKFRYILPV | 2.37
RDRMELLEEAKKMEMAKFRYILPV | 3.21
RNRMELLEEAKKMEMAKFRYILPV | 3.59
RARMELLEEAKKMEMAKFRYILPV | 2.42
RSRMELLEEAKKMEMAKFRYILPV | 2.77
RERMHLLEEAKKMEMAKFRYILPV | 1.99
RERMWLLEEAKKMEMAKFRYILPV | 2.23
RERMILLEEAKKMEMAKFRYILPV | 2.26
RERMALLEEAKKMEMAKFRYILPV | 2.9
RERMCLLEEAKKMEMAKFRYILPV | 2.63
RERMVLLEEAKKMEMAKFRYILPV | 2.29
RERMNLLEEAKKMEMAKFRYILPV | 2.87
RERMGLLEEAKKMEMAKFRYILPV | 2.6
RERMRLLEEAKKMEMAKFRYILPV | 2.97
RERMTLLEEAKKMEMAKFRYILPV | 2.34
RERMYLLEEAKKMEMAKFRYILPV | 2.29
RERMFLLEEAKKMEMAKFRYILPV | 2.81
RERMSLLEEAKKMEMAKFRYILPV | 2.11
RERMKLLEEAKKMEMAKFRYILPV | 2.36
RERMLLLEEAKKMEMAKFRYILPV | 2.75
RERMMLLEEAKKMEMAKFRYILPV | 3.12
RERMPLLEEAKKMEMAKFRYILPV | 3.01

Variant | protein stability index
RERMELLEWAKKMEMAKFRYILPV | 2.16
RERMELLEQAKKMEMAKFRYILPV | 3.31
RERMELLEFAKKMEMAKFRYILPV | 2.37
RERMELLEIAKKMEMAKFRYILPV | 2.57
RERMELLEHAKKMEMAKFRYILPV | 2.8
RERMELLERAKKMEMAKFRYILPV | 2.4
RERMELLESAKKMEMAKFRYILPV | 3.08
RERMELLECAKKMEMAKFRYILPV | 2.12
RERMELLEMAKKMEMAKFRYILPV | 2.78
RERMELLEDAKKMEMAKFRYILPV | 3.91
RERMELLEYAKKMEMAKFRYILPV | 2.49
RERMELLETAKKMEMAKFRYILPV | 2.93
RERMELLEGAKKMEMAKFRYILPV | 3.79
RERMELLENAKKMEMAKFRYILPV | 3.44
RERMELLEAAKKMEMAKFRYILPV | 2.85
RERMELLEVAKKMEMAKFRYILPV | 2.43
RERMELLELAKKMEMAKFRYILPV | 1.94
RERMELLEKAKKMEMAKFRYILPV | 3.65
RERMELLEPAKKMEMAKFRYILPV | 3.42
RELMELLEEAKKMEMAKFRYILPV | 2.3
REIMELLEEAKKMEMAKFRYILPV | 2.39
REYMELLEEAKKMEMAKFRYILPV | 3.25
REWMELLEEAKKMEMAKFRYILPV | 1.73
RENMELLEEAKKMEMAKFRYILPV | 3.18
RETMELLEEAKKMEMAKFRYILPV | 3.68
REMMELLEEAKKMEMAKFRYILPV | 2.7

Variant | protein stability index
REFMELLEEAKKMEMAKFRYILPV | 2.58
REQMELLEEAKKMEMAKFRYILPV | 4.19
RESMELLEEAKKMEMAKFRYILPV | 3.85
REAMELLEEAKKMEMAKFRYILPV | 3.48
RECMELLEEAKKMEMAKFRYILPV | 3.26
REPMELLEEAKKMEMAKFRYILPV | 3.84
REDMELLEEAKKMEMAKFRYILPV | 3.63
REEMELLEEAKKMEMAKFRYILPV | 4.38
REGMELLEEAKKMEMAKFRYILPV | 2.58
REHMELLEEAKKMEMAKFRYILPV | 3.89
REVMELLEEAKKMEMAKFRYILPV | 2.42
RERQELLEEAKKMEMAKFRYILPV | 3.76
RERGELLEEAKKMEMAKFRYILPV | 5.3
REREELLEEAKKMEMAKFRYILPV | 3.67
RERVELLEEAKKMEMAKFRYILPV | 2.88
RERIELLEEAKKMEMAKFRYILPV | 3.08
RERAELLEEAKKMEMAKFRYILPV | 3.99
RERTELLEEAKKMEMAKFRYILPV | 3.53
RERSELLEEAKKMEMAKFRYILPV | 3.59
RERHELLEEAKKMEMAKFRYILPV | 3.21
RERDELLEEAKKMEMAKFRYILPV | 4.17
RERNELLEEAKKMEMAKFRYILPV | 3.94
RERYELLEEAKKMEMAKFRYILPV | 2.82
RERWELLEEAKKMEMAKFRYILPV | 2.81
RERCELLEEAKKMEMAKFRYILPV | 3.69
RERKELLEEAKKMEMAKFRYILPV | 3.74

Variant | protein stability index
RERPELLEEAKKMEMAKFRYILPV | 3.8
EERMELLEEAKKMEMAKFRYILPV | 3.99
YERMELLEEAKKMEMAKFRYILPV | 2.9
FERMELLEEAKKMEMAKFRYILPV | 3.47
IERMELLEEAKKMEMAKFRYILPV | 3.29
CERMELLEEAKKMEMAKFRYILPV | 2.88
MERMELLEEAKKMEMAKFRYILPV | 3.98
QERMELLEEAKKMEMAKFRYILPV | 3.9
VERMELLEEAKKMEMAKFRYILPV | 3.83
PERMELLEEAKKMEMAKFRYILPV | 3.85
GERMELLEEAKKMEMAKFRYILPV | 3.79
HERMELLEEAKKMEMAKFRYILPV | 4.5
NERMELLEEAKKMEMAKFRYILPV | 4.13
KERMELLEEAKKMEMAKFRYILPV | 4.16
TERMELLEEAKKMEMAKFRYILPV | 3.13
WERMELLEEAKKMEMAKFRYILPV | 2.5
LERMELLEEAKKMEMAKFRYILPV | 4.16
SERMELLEEAKKMEMAKFRYILPV | 3.53
DERMELLEEAKKMEMAKFRYILPV | 4.22
AERMELLEEAKKMEMAKFRYILPV | 3.83
RERMELMEEAKKMEMAKFRYILPV | 3.48
RERMELPEEAKKMEMAKFRYILPV | 4.01
RERMELVEEAKKMEMAKFRYILPV | 2.78
RERMELTEEAKKMEMAKFRYILPV | 4.19
RERMELYEEAKKMEMAKFRYILPV | 2.52
RERMELDEEAKKMEMAKFRYILPV | 3.43

Variant | protein stability index
RERMELCEEAKKMEMAKFRYILPV | 3.94
RERMELNEEAKKMEMAKFRYILPV | 3.54
RERMELIEEAKKMEMAKFRYILPV | 3.42
RERMELFEEAKKMEMAKFRYILPV | 3.4
RERMELEEEAKKMEMAKFRYILPV | 3.74
RERMELWEEAKKMEMAKFRYILPV | 2.43
RERMELQEEAKKMEMAKFRYILPV | 3.87
RERMELKEEAKKMEMAKFRYILPV | 3.99
RERMELSEEAKKMEMAKFRYILPV | 3.66
RERMELAEEAKKMEMAKFRYILPV | 3.35
RERMECLEEAKKMEMAKFRYILPV | 3.05
RERMEALEEAKKMEMAKFRYILPV | 3.19
RERMEDLEEAKKMEMAKFRYILPV | 4.56
RERMEWLEEAKKMEMAKFRYILPV | 3
RERMETLEEAKKMEMAKFRYILPV | 3.49
RERMEGLEEAKKMEMAKFRYILPV | 3.54
RERMENLEEAKKMEMAKFRYILPV | 3.66
RERMESLEEAKKMEMAKFRYILPV | 3.19
RERMEILEEAKKMEMAKFRYILPV | 3.98
RERMEHLEEAKKMEMAKFRYILPV | 3.87
RERMEMLEEAKKMEMAKFRYILPV | 3.77
RERMEYLEEAKKMEMAKFRYILPV | 3.83
RERMEQLEEAKKMEMAKFRYILPV | 3.08
RERMEVLEEAKKMEMAKFRYILPV | 2.9
RERMERLEEAKKMEMAKFRYILPV | 3.56
RERMEKLEEAKKMEMAKFRYILPV | 3.88

Variant | protein stability index
RERMELLEEAEKMEMAKFRYILPV | 3.97
RERMELLEEAAKMEMAKFRYILPV | 3.07
RERMELLEEACKMEMAKFRYILPV | 2.24
RERMELLEEADKMEMAKFRYILPV | 4.09
RERMELLEEAFKMEMAKFRYILPV | 2.67
RERMELLEEAGKMEMAKFRYILPV | 3.04
RERMELLSEAKKMEMAKFRYILPV | 3.06
RERMELLPEAKKMEMAKFRYILPV | 3.14
RERMELLNEAKKMEMAKFRYILPV | 2.04
RERMELLFEAKKMEMAKFRYILPV | 2.68
RERMELLTEAKKMEMAKFRYILPV | 3.16
RERMELLGEAKKMEMAKFRYILPV | 2.27
RERMELLQEAKKMEMAKFRYILPV | 2.03
RERMELLIEAKKMEMAKFRYILPV | 2.11
RERMELLLEAKKMEMAKFRYILPV | 2.11
RERMELLDEAKKMEMAKFRYILPV | 2.86
RERMELLHEAKKMEMAKFRYILPV | 2.67
RERMELLREAKKMEMAKFRYILPV | 3.5
RERMELLCEAKKMEMAKFRYILPV | 3.01
RERMELLMEAKKMEMAKFRYILPV | 2.69
RERMELLWEAKKMEMAKFRYILPV | 3.05
RERMELLVEAKKMEMAKFRYILPV | 1.69
RERMELLYEAKKMEMAKFRYILPV | 2.62
RERMELLKEAKKMEMAKFRYILPV | 3.42

Variants of: B2
Test: as above
Conditions: c terminus: a fixed tail appended

Variant | protein stability index
QEGLLDRCVSFQARFAEKEELMLT | 3.82
QEGLLDRCVSFQARFAEKEELMLR | 3.31
QEGLLDRCVSFQARFAEKEELMLS | 3.59
QEGLLDRCVSFQARFAEKEELMLP | 4.13
QEGLLDRCVSFQARFAEKEELMLY | 2.27
QEGLLDRCVSFQARFAEKEELMLW | 2.21
QEGLLDRCVSFQARFAEKEELMLN | 3.42
QEGLLDRCVSFQARFAEKEELMLQ | 3.76
